Results from the DeepSol protein solubility set.

experiment: soluble on expression in E. coli; label from the status in PepcDB or PDB records

Sequence | soluble on expression in E. coli
MGSDKIHHHHHHMEQAATQRLATGIPGLDEICGGGLVPRYAYLVRGGPGTGKTTLGLHFLAAGAANGETTLFISLEETESKIRWNAAQTGINLNQVHILDLSPSSDFFANTQIYDIFSPAEVEREPITRQIVETVQRLQPTRVFLDSITQFRYLTPDTFQFRKQVISFLRFLAEQRTTVVFSAENSAAFPDDDLQYIADGIISLELTNTGRYLTVSKMRGSSFVSGRHAMRLTTQGLQVFPRIIPTPLVAGHAFTLIPSGVPELDELLNGGVERGTITLITGPSGVGKTTLGFQFMKEAASRGERSMVFSFEEEIEIMQQRCEAVNIPVRAMQKQQLLRIEKIEPLQYNPAEFAQHVRYFIEQEQIKVVMIDSVTGYRLCMHGEDLISQLHALSKYLQSRGVTVFLIMDTTDIVGDFKVTEIGASYLGDNIIFLRFLEIEGELRKAIGVLKKRLGDFEKTLREFAISRYGIKVGKPLTNLRGILSGMPTWVDKA | not soluble
MGSDKIHHHHHHMEQIIRIGMDTSKHVFQLHGVNAAEEVVLRKKMRRKEMVAFFERAAPTVVALEACGGSHHWARLLEALGHDVKLIPPQYVKPYVKRGKNDAADAEALCEAVSRPTMRFVRVKTTDNQAALMLVGMRDRLVRNRTQLANAIRGYAAEFGLIAATGTSKVRSLLERIATDETLPELARELFGLHGREYDRLEDEIEKVEARLMAWHRTNECSRRLTRIPGVGPIGALMMVMKTPAPETFRSGRHFAAWLGLTPKDHSTAGRVRLGVITRAGDENLRSVLVAGATAVLRHVREDRGKNASPWLLDMLNRKPPKLVAVALANKIARVAWKLMVTGERYNPNAALSAYGQAA | not soluble
MGSDKIHHHHHHMESLIESNINFSIFFYNPNIHPVKEYLIRKEENIRFAEKHNIPFIDADYDTDNWFARAKGMENEPERGIRCTMCFDMRFERTALYAYENGFSLISSSLGISRWKNMAQINDCGIRAASHYPDIQYWDYNWRKNGGSSRMIEISKREEFYQQEYCGCVYSLRDTNRWRMSNGRDRIKIGVKFYSNAMEND | not soluble
MGSDKIHHHHHHMETITIDEKTLYNLTQPSEVIEELTHLNGNLTLVPNILSEDALLNKSVKEIEKIALEEADKTSPKHVRGKKIRRKGYAKYRFLKGFKIMLKGREDIYKLERISVELPVLYSDKGRVKTQVEERLLREEKVFKALMTVYSVLGGKLNAKLWMLEIQASGDFKYVIVDGKYVKLKGGRGSFSAIGVTEEGKRAVLDITLSVEKDVMSYWRLLVEVWKKYSFVLVVVDGTKALDKISLAELQVRRQGCLVHLKRNATKEEREALNVIFSAESGEIKPETCPRLLSYLSTPKELWRWLKSNNLIESFNSLLERRRFGSFHSPWRILQIARTIANNYNLSVVFHQFY | not soluble
MGSDKIHHHHHHMFAQVHYPESLSGEELDEYLFKGWFRNGQRIFTTNFLNFDQKIYSAVWLRIHLQSIKSIHALDKLAKRNSRFKITIQPASITPEKEALFEQYKTGVDFTASQSLHTLLFGDSTVDIYNTLELLIHDGNKLIGVGYFDTGKDCAAGITSFYDHAYKKNSLGKYIIMQKIKYCIDQQYSYFYPGYFVPNYPAFDYKLSIGTETLEYLSLSKNTWVSIQAFVTNEDPFQVMLKKLKEFQSVCANYGIEQQIYQYSFFEANIIPSLRGLHLFDFPVFVYLFSEQEDVVNPMVVFDVVNQCYHLIECRSIWKADESIQEEGFYSSHLLKMEKHICSALTATEMSTIIMRSIEESSTFR | not soluble
MGSDKIHHHHHHMFDPESLKKLAIEIVKKSIEAVFPDRAVKETLPKLNLDRVILVAVGKAAWRMAKAAYEVLGKKIRKGVVVTKYGHSEGPIDDFEIYEAGHPVPDENTIKTTRRVLELVDQLNENDTVLFLLSGGGSSLFELPLEGVSLEEIQKLTSALLKSGASIEEINTVRKHLSQVKGGRFAERVFPAKVVALVLSDVLGDRLDVIASGPAWPDSSTSEDALKVLEKYGIETSESVKRAILQETPKHLSNVEIHLIGNVQKVCDEAKSLAKEKGFNAEIITTSLDCEAREAGRFIASIMKEVKFKDRPLKKPAALIFGGETVVHVKGNGIGGRNQELALSAAIALEGIEGVILCSAGTDGTDGPTDAAGGIVDGSTAKTLKAMGEDPYQYLKNNDSYNALKKSGALLITGPTGTNVNDLIIGLIV | soluble
MGSDKIHHHHHHMFEAFGDMSLDLLRAFEVAARLRSFTAAAIELGTIQPAVSQQIKRLEEQLATRLFDRIYRGIELTEAGEILFSHVQAGLQSIDSGLIAITEQQQHEVLQVATDFAFAAYWLMPRLHRFHKLNPDVDVSLVTSERTHSMLRADIDVTVLFGDGRFKQGESRWLFSEEVFPVCSPLLIADRQTPLPNDALRDFPLLHLRGDSINNWFDWSGVFRALDIPQAPAPGQLRFDNYTLLIQAAIGGQGIAIGWKHLVDDLLDQGLLCRPIAGAAISGHGYYVVLPQRKRRVQIVQQFMDWLASEQALSGVSLAGRPLPSIAV | not soluble
MGSDKIHHHHHHMFGYVLPLRGELKVKDYEKFKSYYCGLCLSIKKNYGNLPRSVLNYDMTFLAVLLDALEDKKCEFRLNRCIAHPYKKKYAIINNKALDYAAFFNICLVYYKLVDDVNDDKKISSKIKSLLLRGYFKKFPKPFYVYSDYIKSSLTELNKLEKKSNNLTLDEISHPFSDLTAFIISSYADNKPYKDILYNIGYNLGKWIYIMDAYDDLKEDIKLKKFNAINNTMNLDDKPYEDLIKDISPKISFVLSMCGSNCLHNLNLLPLKTNQDILFNILQYGLLDKMNNLNL | not soluble
MGSDKIHHHHHHMFIGFDYGTANCSVAIMRDGHPQLLTMENNSALLPSMLCAPTREAVSEWLYRHHDVPATDEETQALLRRAIRYNREEDIEVGAQSVQFGLASLAHYIDDPQEVWFVKSPKSFLGASGLKPQQVALFEDLVCAMMVHIRHTAHSQLPEAITQAVIGRPINFQGLGGDDANRQAQGILERAAKRAGFQEVVFQYEPVAAGLDYEATLREEKRVLVVDIGGGTTDCSMLLMGPQWRQRADRENSLLGHSGCRVGGNDLDIALAFKNLMPLLGMGGETEKGIALPVLPWWNAVAINDVPAQSDFYSSANGRLLNDLVRNAREADKVALLLKVWRQRLSYRLVRCAEESKIALSGQADVTARLPFISDDLAVAISQQGLEAALDQPLTRILEQVQLALDSAQEKPDVIYLTGGSARSPLIKKALSEQLPGIPVAGGDDFGSVTAGLARWAEVVFR | not soluble
MGSDKIHHHHHHMFLNLIATAGNDRIRDFLVNDWYRSLKENVDLSKTDVLVINYGLTGLPKEVINFPAVERSGLINNTRFINLAIFLENHPEYDQILFCDGGDIIFQSDISHLFEEHRDAFRAVVEQLSPPIDLVVKEEDLVNGKEIKSFLSNKKLFNVGVIIAPREGFLELARTMERRLKNINVWGGDTVIGNYVIYKNPHVELPSKYNFIPSTAREKFYVKDSKFYLENGELIPIVHNAGRYRFLRPVKDFGYGPGKNRVNKFNIWMFRMLFSVSNFLKMK | not soluble
MGSDKIHHHHHHMFLYELFKEQRKLYNFTQEEFYEGIFKKRAASSFEVHNTHDLKVKDLPVLSDRSMMSILEIIHYAKEEFISPYDEDLNSLFDIFQNNTEKENKDYIYKLYKKSIELKEHSIIYWNLYLIIKIQCSEYDSRIVPTDSQDLSELKKMILSKQKFTLYDYKIVTNLSLVFSYKELQPFLSSLFPLDSNAPTVTSEAAYYLLENITTKLVQNRDFESCTEVLNIYNDLLQKFPSYKYKLNYLITYNLVGYFLTNNMDSLNNSIKYVDLLGDLENVELAKLMKDNIYLMISKKNNGSMSKPDTLLTKENNHIKLNEKKITKRLE | not soluble
MGSDKIHHHHHHMFNTAVKILYRSLIELTNHRLSSYLIKGFCESKISKPVIPLFSKHFRLNWDDVDGTAADYGSLSELFIRQINLERRPVSKEAHAVVSPVDGVVQTVGIINPNQTFTVKGKDYSFAELTGCKSADHQYNGGYFVVLYLSPRHYHRFHSPISCRYQKLAELGNRSYPVNQLGLKYGKDVLSKNYRFVYELNSGSRNVLMIPVGAMNINSIVQTNTRTELEIGEELGYFSFGSTVILVFEKDAFQPSAHLAEGQEVQVGELIGYEE | not soluble
